Entries after “also recorded” stand apart in the source; their conditions may differ.
Tests used:
primary melanocytes = experiment: Melanocyte cell viability after IFN-γ, chemokines, cell death inhibitors or 2A6Q, Day 2 and Day 7; format: cell-based, human; conditions: melanocytes with IFN-γ, up to seven days; listed as 2A6Q
Experimental: To determine cell viability of melanocyte after treatment with IFN-γ, CXCL9, CXCL10, CXCL11, at Day 2, and Day 7, the cells were collected and seeded into 96-well plates. After adhesion, cells were treated with IFN-γ (0, 10, 100 ng/ml) with different compounds: 2A6Q, CXCL9, CXCL10, CXCL11, ROS scavenger (NAC), necroptosis inhibitor (NEC-1), pyroptosis inhibitor (VX-765), apoptosis inhibitor (QVD-OPH), Ferroptosis inhibitor (Liproxstaitin-1, Ferrostatin-1, DFO). Cell viability was measured using a CellTiter-Glo luminescent cell viability assay kit (Promega) according to the manufacturer's protocol. The […] of the final reaction product was measured using a luminometer (SpectraMax® iD3 Multi-Mode Microplate Reader (Molecular Devices). After calculation, the viability of control cells was 100%, and all others were normalized to control and shown as relative cell viability (%). Treatment dosage N-acetylcysteine (NAC; 0.05 mM, 1 mM), Necrostatin-1 (NEC-1; 20 μM, 2 μM), Belnacasan (VX-765; 50 μg/mL, 5 μg/mL), Quinoline-Val Asp-Difluorophenoxymethylketone (QVD-OPH; 10 μM, 2 μM), Liproxstaitin-1 (10 μM, 5 μM, 1 μM, 0.05 μM), Ferrostatin-1 (5 μM, 1 μM), Deferoxamine (DFO; 10 μM, […], 1 μM, 0.05 μM), 2A6Q (10 μg/mL), CXCL9 (10 ng/mL, 10 pg/mL), CXCL10 (10 ng/ml, 10 pg/mL), CXCL11(10 ng/mL, 10 pg/mL).

recombinant human IFN-γ = target: T1, recombinant human IFN-γ (Homo sapiens, UniProt P01579); experiment: EI-001 neutralization of IFN-γ, restoration of melanocyte melanogenesis; format: cell-based; conditions: addition of 2A6Q
T1 sequence (P01579 24-161 limits assumed): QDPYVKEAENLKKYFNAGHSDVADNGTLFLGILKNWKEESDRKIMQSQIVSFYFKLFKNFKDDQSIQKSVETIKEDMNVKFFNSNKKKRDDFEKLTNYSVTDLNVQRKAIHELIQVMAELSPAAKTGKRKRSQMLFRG
Experimental: Materials and methods: To examine the dose-dependency of IFN-γ inhibition of HEMn-DP cell melanogenesis, HEMn-DP cells were seeded into a 24-well plate at a concentration of 200,000 cells/well in 1 mL assay medium (M254 supplemented with 1× HMGS, 10 ng/mL PMA plus Penicillin-Streptomycin) with serial dilutions of IFN-γ, followed by incubation at 37° C. for 7 days. The cell assay medium was replaced by fresh medium with serially titrated concentrations of IFN-γ on day 3 and day 5. On day 7, cells were first washed with PBS twice, lysed in 250 μL of 1N NaOH/10% DMSO solution, then incubated at 80° C. for 1 hr. After lysis, each lysate was transfer to 96 well plate, and absorbance of melanin was then measured at […]. The relative melanin quantity was normalized with cell viability of each sample which was measured by CellTiter-Glo kit, and data were analyzed using nonlinear regression curve fit using GraphPad Prism7. To determine the potency of EI-001, HEMn-DP cells were seeded as previously described, and IFN-γ pre-incubated with indicated amounts of EI-001 for 25 min in 1 mL of assay medium. After incubation, the mixture was added to each well (final IFN-γ concentration is 20 ng/ml). Melanin content of melanocytes was determined as previously described.

[1] = test system: CXCR3 expression on CD8+ T cells; experiment: CXCR3 expression on CD8+ T cells of activated PBMCs (flow cytometry); format: cell-based, human; conditions: 3 individual donors
Experimental: Materials and methods: PBMCs from healthy adult donors were isolated from whole blood using Ficoll-Paque density gradient centrifugation. PBMCs were cultured in a humidified 37° C. incubator for 24 hours in RPMI-1640 culture medium supplemented with 5% human serum, and standard antibiotics, 2-ME and HEPES. PBMCs were then seeded at 1×10^6 cells/well with 1 mL fresh culture medium/well in a 24-well plate and stimulated by mixing cells with human T cell TransAct (1:200). Antibodies indicated in the Results were then added and mixed well. After 2 days of culture, PBMCs were collected, washed with PBS three times, re-suspended in culture medium and re-cultured with indicated antibodies for an additional 2 days.
PBMCs were treated as required (see above) and then harvested for flow cytometry antibody staining, using anti-human CD4, anti-human CD8, anti-human CD56 and anti-human CXCR3 antibodies for 30 minutes on ice in the dark. PBMCs were then washed twice with FACS buffer and the expression of CXCR3 determined by flow cytometry using an Attune NxT flow cytometry. Flow cytometry data analysis was performed using FlowJo software.

melanocytes = experiment: Intracellular ROS in melanocytes (CM-H2DCFDA); format: cell-based, human; conditions: melanocytes
Experimental: Materials and methods: For intracellular ROS measurement, melanocytes were washed with PBS and incubated with 20 μM CM-H2DCFDA (Invitrogen) for 30 min at 37° C. in the dark. The cells were resuspended with PBS and examined with flow cytometry at an excitation wavelength of 488 nm and an emission wavelength of 530 nm; the data were analyzed with FlowJo.

SLC7A11 = experiment: Ferroptosis regulators in melanocytes (RNA sequencing, SLC7A11 immunoblot); format: cell-based, human; conditions: melanocytes
Source text: (§1) Total RNA was extracted from melanocytes with an RNA purification kit (Zymo Research, r2050). After RNA samples were extracted from primary melanocytes and melanocytes cell line (Gibco), the samples were sent to Biotools Co., Ltd Taiwan for RNA sequence. The RNA quality was examined by Agilent Technologies 2100 Bio-analyzer with an RNA integrity value greater than 8. After rRNA depletion (Epicenter), RNA fragmentation, and library preparation (Illumina), the constructed libraries were then performed 150 bp paired-end sequencing by an Illumina NovaSeq6000 sequencer. The results from each sample were aligned to the GRCh38 genome by the HISAT2 software and analyzed by Biotools Co., Ltd Taiwan.
(§2) Cells were washed in PBS and lysed in RIPA lysis buffer with proteases inhibitor and Phenylmethanesulfonyl fluoride (PMSF; Sigma-Aldrich, P7626). The total cell lysates were sonicated and centrifuged at 4° C., 13000 rpm for 30 min. Protein concentration was quantified using the Bradford assay. The total cell lysates were separated by SDS-PAGE and transferred to a PVDF membrane. The membrane was blocked with 5% BSA or 5% milk in TBST for 1 hour at room temperature and incubated with primary antibodies overnight at 4° C. and HRP-conjugated secondary antibodies for hour at room temperature. The protein was visualized by Thermo ibright1500. Primary antibodies were follows: anti-human SLC7A11 (CST, 12691), anti-human SLC3A2 (CST, 13180), anti-IRF1 (CST, 8478), anti-MITF (CST, 12590), and anti-GAPDH (Abcam, ab8245).

MITF = experiment: Melanin regulators in melanocytes (RNA sequencing, MITF immunoblot); format: cell-based, human; conditions: melanocytes
Source text: as §1, §2

B1: EI-001: human monoclonal anti-IFN-γ neutralizing antibody; VH SEQ ID NO: 165, VL SEQ ID NO: 113; N76Q removes VH glycosylation site (antibody, listed as Homo sapiens, V domains shown)
VH: EVQLVESGGGLVKPGDSLTVSCVASGFTFSNYFIHWVRQAPGKGLEWVATISGRTKYMFYSDSLRGRFTVSRDNAQNSVYLHMSSLRGEDTALYYCVRGYDHSDSNSAADLLHWGRGTLVTVSS
VL: NFMLTQPLSVSGYPGKTIVISCVRSSGSVASHYVQWFQQRPGSAPAMVIYEDSHRPSGIPDRFSGSVDASSNSASLTISGLKTEDEADYFCQSYYGNNQVLFGGGTKLTVL
modifications: Recombinant variant antibody sequence
notes: human monoclonal anti-IFN-γ neutralizing antibody; N76Q removes VH glycosylation site
rescue of IFN-γ induced melanocyte cell death (cell viability) (primary melanocytes): more profound than all other cell death inhibitors; also recorded: rescue cell viability of melanocyte in a time-dependent manner | rescue of IFN-γ induced decrease in melanin content (recombinant human IFN-γ): can be rescued; also recorded: reverses | IC50 of EI-001 to inhibit CXCR3 expression on CD8+ T cells [1]: 1.029 to 6.941 µg/mL | reversal of IFN-γ induced ROS / cellular oxidative stress (melanocytes): reverses the ROS | reversal of ferroptosis as demonstrated by SLC7A11 (SLC7A11): reverses ferroptosis | reversal of IFN-γ induced downregulation of MITF (MITF): reverses
